What was measured:
[1] = target: T1, anm12_arath PRMT12 (UniProt O82210)
T1 sequence: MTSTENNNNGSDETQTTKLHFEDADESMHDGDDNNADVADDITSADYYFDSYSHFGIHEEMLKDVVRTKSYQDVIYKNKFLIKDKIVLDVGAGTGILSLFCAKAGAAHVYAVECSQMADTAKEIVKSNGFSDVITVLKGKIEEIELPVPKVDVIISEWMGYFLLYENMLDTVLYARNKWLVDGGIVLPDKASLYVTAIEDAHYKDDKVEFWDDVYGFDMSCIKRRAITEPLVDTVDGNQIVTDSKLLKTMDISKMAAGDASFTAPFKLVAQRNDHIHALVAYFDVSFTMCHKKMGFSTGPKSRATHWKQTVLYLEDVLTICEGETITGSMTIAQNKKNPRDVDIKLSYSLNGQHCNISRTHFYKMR

[2] = target: T2, anm11_arath PRMT11 (UniProt Q9SU94)
T2 sequence: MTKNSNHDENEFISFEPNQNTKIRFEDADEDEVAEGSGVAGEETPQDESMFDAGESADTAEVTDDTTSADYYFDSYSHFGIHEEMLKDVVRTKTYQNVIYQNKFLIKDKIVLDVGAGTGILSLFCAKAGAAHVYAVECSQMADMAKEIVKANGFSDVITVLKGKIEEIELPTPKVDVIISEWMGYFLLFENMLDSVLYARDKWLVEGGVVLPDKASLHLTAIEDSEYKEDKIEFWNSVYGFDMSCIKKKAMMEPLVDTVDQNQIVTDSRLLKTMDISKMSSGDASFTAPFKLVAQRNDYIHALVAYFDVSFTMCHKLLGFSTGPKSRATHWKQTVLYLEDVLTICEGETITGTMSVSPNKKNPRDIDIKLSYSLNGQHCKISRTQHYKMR

effect of a mutation on the interaction [1]: disrupting interaction | effect of a mutation on the interaction [2]: disrupting interaction
Substance: Histone H4 (Homo sapiens) (from UniProt P62805) R20K

Reference: IntAct's records for PubMed 17666011
